Measurements taken from the supplement of paper PMC9112550, “Optimization of the antimicrobial peptide Bac7 by deep mutational scanning” (BMC Biology, 2022).

Test system: Escherichia coli TOP10
Assay: shrunken log2 fold change of peptide-encoding DNA abundance (4.5 h post-induction vs induction); higher = less antimicrobial activity (less host growth inhibition)
Conditions: time post-induction: 4.5 h; library: site-saturation at positions 5, 18, 19, 20
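Also: peptides expressed intracellularly from a pBAD plasmid library in pooled LB shake-flask culture, induced with 0.3% L-arabinose, DNA abundance read by NGS, three biological replicates, DESeq2 with apeglm shrinkage.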

Row | Sequence | shrunken log2 fold change
1 | RRIRGRPPRLPRPRPRPSRAPRP | 0.553
2 | RRIRARPPRLPRPRPRPREIPRP | 0.865
3 | RRIRNRPPRLPRPRPRPIGQPRP | -0.0958
4 | RRIRFRPPRLPRPRPRPPELPRP | 0.106
5 | RRIRERPPRLPRPRPRPAKSPRP | 0.0676
6 | RRIRFRPPRLPRPRPRPGWQPRP | 0.188
7 | RRIRNRPPRLPRPRPRPVNMPRP | 0.131
8 | RRIRERPPRLPRPRPRPVWGPRP | 0.259
9 | RRIRHRPPRLPRPRPRPEKQPRP | -0.0365
10 | RRIRVRPPRLPRPRPRPDSHPRP | -0.111
11 | RRIRTRPPRLPRPRPRPRWIPRP | 0.0272
12 | RRIRPRPPRLPRPRPRPEVAPRP | 0.212
13 | RRIRFRPPRLPRPRPRPGVFPRP | -0.227
14 | RRIRHRPPRLPRPRPRPKFLPRP | 0.0327
15 | RRIRFRPPRLPRPRPRPDMCPRP | 0.124
16 | RRIRGRPPRLPRPRPRPEMWPRP | 1.76
17 | RRIRRRPPRLPRPRPRPSCFPRP | -0.0896
18 | RRIRDRPPRLPRPRPRPSHMPRP | -0.0936
19 | RRIRLRPPRLPRPRPRPLRVPRP | 0.4
20 | RRIRTRPPRLPRPRPRPGPGPRP | 0.484

Row | Sequence | shrunken log2 fold change
21 | RRIRMRPPRLPRPRPRPTRTPRP | 2.22
22 | RRIRLRPPRLPRPRPRPKIYPRP | -0.492
23 | RRIRMRPPRLPRPRPRPQHWPRP | 0.155
24 | RRIRLRPPRLPRPRPRPVIEPRP | -0.0888
25 | RRIRTRPPRLPRPRPRPFWAPRP | 0.346
26 | RRIRNRPPRLPRPRPRPNKWPRP | -0.155
27 | RRIRSRPPRLPRPRPRPQRGPRP | 0.274
28 | RRIRERPPRLPRPRPRPLEKPRP | 0.094
29 | RRIRPRPPRLPRPRPRPKLYPRP | 0.0311
30 | RRIRDRPPRLPRPRPRPNLGPRP | -0.00884
31 | RRIRCRPPRLPRPRPRPGMEPRP | 0.183
32 | RRIRIRPPRLPRPRPRPIGMPRP | -0.187
33 | RRIRHRPPRLPRPRPRPHCRPRP | 0.0364
34 | RRIRFRPPRLPRPRPRPHMTPRP | -0.186
35 | RRIRVRPPRLPRPRPRPQFFPRP | -0.0611
36 | RRIRTRPPRLPRPRPRPNIYPRP | 0.0647
37 | RRIRIRPPRLPRPRPRPFHRPRP | -0.152
38 | RRIRFRPPRLPRPRPRPQETPRP | -0.0613
39 | RRIRDRPPRLPRPRPRPCNVPRP | 0.0436
40 | RRIRERPPRLPRPRPRPCIAPRP | -0.753

Row | Sequence | shrunken log2 fold change
41 | RRIRLRPPRLPRPRPRPYIYPRP | -1.24
42 | RRIRVRPPRLPRPRPRPNNRPRP | -0.276
43 | RRIRSRPPRLPRPRPRPQYWPRP | -0.397
44 | RRIRGRPPRLPRPRPRPTHTPRP | 0.862
45 | RRIRPRPPRLPRPRPRPDRKPRP | -0.124
46 | RRIRGRPPRLPRPRPRPDQGPRP | 0.347
47 | RRIRYRPPRLPRPRPRPHCPPRP | -0.0417
48 | RRIRYRPPRLPRPRPRPLWHPRP | -0.48
49 | RRIRHRPPRLPRPRPRPACEPRP | 0.0343
50 | RRIRHRPPRLPRPRPRPLGIPRP | -0.148
51 | RRIRHRPPRLPRPRPRPINYPRP | -0.248
52 | RRIRFRPPRLPRPRPRPTYEPRP | -0.3
53 | RRIRHRPPRLPRPRPRPWGPPRP | -0.0071
54 | RRIRPRPPRLPRPRPRPFQDPRP | -0.0806
55 | RRIRFRPPRLPRPRPRPWCLPRP | -0.17
56 | RRIRSRPPRLPRPRPRPPGTPRP | 0.396
57 | RRIRQRPPRLPRPRPRPISKPRP | -0.0725
58 | RRIRPRPPRLPRPRPRPTAIPRP | 0.434
59 | RRIRVRPPRLPRPRPRPQRKPRP | 0.0451
60 | RRIRCRPPRLPRPRPRPPPLPRP | 1.15
